{"source": "paper PMC3594540", "about": "(Nature structural & molecular biology, 2013)", "binders": {"B1": {"name": "murine Gαq (residues 7–359), biotinylated for bead binding (natural protein)", "chain": "MACCLSEEAKEARRINDEIERQLRRDKRDARRELKLLLLGTGESGKSTFIKQMRIIHGSGYSDEDKRGFTKLVYQNIFTAMQAMIRAMDTLKIPYKYEHNKAHAQLVREVDVEKVSAFENPYVDAIKSLWNDPGIQECYDRRREYQLSDSTKYYLNDLDRVADPSYLPTQQDVLRVRVPTTGIIEYPFDLQSVIFRMVDVGGQRSERRKWIHCFENVTSIMFLVALSEYDQVLVESDNENRMEESKALFRTIITYPWFQNSSVILFLNKKDLLEEKIMYSHLVDYFPEYDGPQRDAQAAREFILKMFVDLNPDSDKIIYSHFTCATDTENIRFVFAAVKDTILQLNLKEYNLV"}}, "test_in_all_cases": "cell-based or functional assay", "key": {"[1]": {"biological_target": "T1, PLCβ3 I1129E V1133E I1136E triple mutant (human, UniProt Q01970)", "T1 chain": "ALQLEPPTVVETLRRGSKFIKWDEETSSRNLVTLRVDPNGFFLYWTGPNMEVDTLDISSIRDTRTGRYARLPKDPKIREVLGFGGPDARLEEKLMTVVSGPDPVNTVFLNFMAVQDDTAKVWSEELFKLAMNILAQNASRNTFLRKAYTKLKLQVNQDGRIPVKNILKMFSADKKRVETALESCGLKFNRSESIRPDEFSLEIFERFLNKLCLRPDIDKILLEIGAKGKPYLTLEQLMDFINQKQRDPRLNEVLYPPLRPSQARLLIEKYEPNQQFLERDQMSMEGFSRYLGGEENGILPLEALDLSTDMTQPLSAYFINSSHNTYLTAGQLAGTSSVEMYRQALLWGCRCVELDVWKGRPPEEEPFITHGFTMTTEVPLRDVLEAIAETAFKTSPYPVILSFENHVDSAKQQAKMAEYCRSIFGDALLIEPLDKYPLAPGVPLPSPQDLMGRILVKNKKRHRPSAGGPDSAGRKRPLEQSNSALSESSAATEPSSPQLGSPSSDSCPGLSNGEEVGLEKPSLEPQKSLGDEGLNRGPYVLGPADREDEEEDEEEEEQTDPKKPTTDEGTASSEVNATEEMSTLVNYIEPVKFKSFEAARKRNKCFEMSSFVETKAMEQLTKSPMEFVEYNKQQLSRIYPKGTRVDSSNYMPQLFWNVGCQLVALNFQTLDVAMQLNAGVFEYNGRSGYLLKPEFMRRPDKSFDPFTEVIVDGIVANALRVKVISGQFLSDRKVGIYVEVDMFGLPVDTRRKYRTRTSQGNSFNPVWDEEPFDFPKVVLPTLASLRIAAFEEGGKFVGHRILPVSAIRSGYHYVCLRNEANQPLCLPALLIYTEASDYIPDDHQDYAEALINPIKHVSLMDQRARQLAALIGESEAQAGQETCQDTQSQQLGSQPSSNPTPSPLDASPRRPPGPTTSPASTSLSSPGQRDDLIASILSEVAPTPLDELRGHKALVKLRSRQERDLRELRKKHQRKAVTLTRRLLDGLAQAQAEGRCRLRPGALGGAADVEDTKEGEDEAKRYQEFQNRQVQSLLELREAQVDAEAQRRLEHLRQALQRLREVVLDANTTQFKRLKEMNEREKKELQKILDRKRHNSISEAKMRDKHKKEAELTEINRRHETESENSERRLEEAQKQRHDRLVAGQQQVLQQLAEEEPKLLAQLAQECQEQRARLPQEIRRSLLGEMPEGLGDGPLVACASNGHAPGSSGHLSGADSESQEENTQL"}, "PLCβ3 L876A": {"biological_target": "PLCβ3 L876A (human, UniProt Q01970 10-1234, L876A)"}, "[2]": {"biological_target": "T2, human PLCβ3 (residues 10–1234) (human, UniProt Q01970 10-1234)", "T2 sequence": "T1 chain with E1120I, E1124V, E1127I"}}, "note": "Where a chain is given by its changes, count along the chain named.", "data": [{"binder": "B1", "values": [{"measurement": "EC50 of Gαq-stimulated PIP2 hydrolysis ([3H]-IP3 release from liposomes)", "setting": "[1]", "value": 280, "unit": "nM"}, {"measurement": "Max specific activity of Gαq-stimulated PIP2 hydrolysis (liposomes)", "setting": "[1]", "value": 1900, "unit": "nmol IP3/min/nmol PLCβ3"}, {"measurement": "EC50 of Gαq-stimulated PIP2 hydrolysis ([3H]-IP3 release from liposomes)", "setting": "PLCβ3 L876A", "value": 19, "unit": "nM"}, {"measurement": "Max specific activity of Gαq-stimulated PIP2 hydrolysis (liposomes)", "setting": "PLCβ3 L876A", "value": 6500, "unit": "nmol IP3/min/nmol PLCβ3"}, {"measurement": "EC50 of Gαq-stimulated PIP2 hydrolysis ([3H]-IP3 release from liposomes)", "setting": "[2]", "value": 120, "unit": "nM"}, {"measurement": "Max specific activity of Gαq-stimulated PIP2 hydrolysis (liposomes)", "setting": "[2]", "value": 2900, "unit": "nmol IP3/min/nmol PLCβ3"}]}]}
